Positions count from the first letter of the chain named. Read-outs that look alike come from different tables or passages of the source.
T1: recombinant MERS-COV spike protein (MERS-CoV, UniProt K9N5Q8 18-1291)
T1 sequence: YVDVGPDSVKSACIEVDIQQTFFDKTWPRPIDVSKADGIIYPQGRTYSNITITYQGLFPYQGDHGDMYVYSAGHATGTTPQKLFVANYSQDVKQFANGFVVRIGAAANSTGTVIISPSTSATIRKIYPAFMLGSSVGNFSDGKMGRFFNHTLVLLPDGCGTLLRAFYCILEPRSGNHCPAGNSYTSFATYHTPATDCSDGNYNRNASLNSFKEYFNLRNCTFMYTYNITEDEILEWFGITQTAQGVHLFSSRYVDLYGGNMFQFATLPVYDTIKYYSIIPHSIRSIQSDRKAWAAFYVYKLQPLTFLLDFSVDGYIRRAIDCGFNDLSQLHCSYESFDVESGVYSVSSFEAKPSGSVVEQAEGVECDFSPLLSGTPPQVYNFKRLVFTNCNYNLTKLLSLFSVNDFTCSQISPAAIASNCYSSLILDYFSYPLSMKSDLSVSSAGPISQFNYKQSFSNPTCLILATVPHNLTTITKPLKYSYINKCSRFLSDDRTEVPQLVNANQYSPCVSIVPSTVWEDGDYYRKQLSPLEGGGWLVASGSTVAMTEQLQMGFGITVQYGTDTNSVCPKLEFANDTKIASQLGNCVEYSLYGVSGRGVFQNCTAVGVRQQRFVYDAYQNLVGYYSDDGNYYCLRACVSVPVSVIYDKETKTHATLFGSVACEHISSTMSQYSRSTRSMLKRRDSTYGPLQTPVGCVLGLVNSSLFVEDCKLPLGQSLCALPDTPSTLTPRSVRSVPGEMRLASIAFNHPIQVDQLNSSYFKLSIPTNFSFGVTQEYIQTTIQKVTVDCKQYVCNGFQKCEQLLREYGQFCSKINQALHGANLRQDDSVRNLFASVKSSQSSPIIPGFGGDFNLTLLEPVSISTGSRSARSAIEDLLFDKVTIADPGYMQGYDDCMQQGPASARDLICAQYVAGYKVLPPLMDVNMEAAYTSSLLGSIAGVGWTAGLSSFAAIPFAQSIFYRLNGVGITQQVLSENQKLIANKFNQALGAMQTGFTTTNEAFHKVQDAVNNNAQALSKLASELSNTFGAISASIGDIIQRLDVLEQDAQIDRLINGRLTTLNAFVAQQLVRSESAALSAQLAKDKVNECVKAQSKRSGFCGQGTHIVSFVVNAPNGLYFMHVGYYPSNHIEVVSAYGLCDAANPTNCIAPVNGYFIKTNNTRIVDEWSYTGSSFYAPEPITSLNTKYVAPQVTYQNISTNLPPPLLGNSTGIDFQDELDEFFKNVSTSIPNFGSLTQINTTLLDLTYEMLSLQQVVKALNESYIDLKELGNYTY

T2: recombinant HKU1 spike protein (HCoV-HKU1, UniProt Q5MQD0 13-1276)
T2 sequence: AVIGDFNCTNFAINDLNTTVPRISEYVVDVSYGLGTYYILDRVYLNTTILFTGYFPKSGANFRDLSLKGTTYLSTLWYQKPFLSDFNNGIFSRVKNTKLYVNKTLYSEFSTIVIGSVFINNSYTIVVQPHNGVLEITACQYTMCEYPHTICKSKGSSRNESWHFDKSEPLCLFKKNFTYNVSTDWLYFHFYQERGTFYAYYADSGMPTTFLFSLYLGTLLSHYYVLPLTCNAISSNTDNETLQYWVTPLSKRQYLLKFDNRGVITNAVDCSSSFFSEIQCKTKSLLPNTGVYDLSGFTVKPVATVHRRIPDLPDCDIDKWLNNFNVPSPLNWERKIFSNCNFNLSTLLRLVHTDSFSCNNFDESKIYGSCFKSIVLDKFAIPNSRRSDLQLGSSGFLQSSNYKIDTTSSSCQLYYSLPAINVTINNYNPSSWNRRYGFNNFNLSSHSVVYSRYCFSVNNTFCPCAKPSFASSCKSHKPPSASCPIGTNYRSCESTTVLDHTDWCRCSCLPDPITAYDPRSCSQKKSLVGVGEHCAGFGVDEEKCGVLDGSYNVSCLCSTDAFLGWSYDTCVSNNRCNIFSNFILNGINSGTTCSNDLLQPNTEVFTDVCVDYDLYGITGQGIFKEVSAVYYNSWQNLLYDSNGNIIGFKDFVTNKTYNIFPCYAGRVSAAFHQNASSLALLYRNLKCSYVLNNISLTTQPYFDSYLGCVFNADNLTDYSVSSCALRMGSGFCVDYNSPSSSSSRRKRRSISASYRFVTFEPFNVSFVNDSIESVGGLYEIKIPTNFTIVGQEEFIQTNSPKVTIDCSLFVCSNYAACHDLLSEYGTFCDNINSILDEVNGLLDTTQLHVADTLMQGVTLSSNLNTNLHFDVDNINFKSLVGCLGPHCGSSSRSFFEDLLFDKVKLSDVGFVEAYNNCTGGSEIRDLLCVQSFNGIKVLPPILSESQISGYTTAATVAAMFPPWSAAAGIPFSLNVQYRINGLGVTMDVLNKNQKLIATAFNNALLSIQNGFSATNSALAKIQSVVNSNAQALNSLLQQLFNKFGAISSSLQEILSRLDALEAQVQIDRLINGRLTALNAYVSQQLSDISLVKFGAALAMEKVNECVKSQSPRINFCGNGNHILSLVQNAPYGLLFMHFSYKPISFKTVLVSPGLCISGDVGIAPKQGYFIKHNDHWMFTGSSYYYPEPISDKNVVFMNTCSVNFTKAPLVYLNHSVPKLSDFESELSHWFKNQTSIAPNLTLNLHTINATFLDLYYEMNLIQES

B1: 3.83 (VHH)
VHH: QVQLQESGGGLVQPGDSLRLSCVLSGGVFTSYAMGWFRQAPGKEREFLAAITFNSDATYYADSVKGRFTISRDNAKNTAYLQMNSLKPNDTAVYSCAAGGNHYNPQYYHDYDKYDHWGQGTQVTVSS
B2: VHH R3_DC5 (VHH)
VHH: QVQLQESGGGLVQAGDSLRLSCAASGRIFSTYTMGWFRQAPGMEREFVAAIRWSGSTVYYADSVKGRFTISRDNAKNTVYLQMNSLKPEDTAVYYCAAARVSKANYGTLWYRATGLYDYWGQGTQVTVSS
B3: VHH R3_DC19 (VHH)
VHH: QVQLQESGGGLVQPGDSLRLSCAVSGRPFSTYTMGWFRQAPGKEREFVAAMRWSGGTIYYADSVKGRFTISRDNDKNTVNLEMNSLKPEDTAVYYCAAAYVSKANYGSLWYRASGLYDYWGQGTQVTVSS
B4: VHH R3_DC21 (VHH)
VHH: B3 VHH with P14A, K65R

Assays:
[1] = molecular target: T3, SARS-COV-2 RBD (His-tagged, Sinobiologicals) (SARS-CoV-2 (Wuhan), UniProt P0DTC2 319-541); assay: ELISA, periplasmic extract 1/10, OD450 antigen/OD450 BSA
[2] = molecular target: T3, SARS-COV-2 RBD (His-tagged, …); assay: as above; remark: listed apart in the source
[3] = molecular target: T1, recombinant MERS-COV spike protein; assay: ELISA, periplasmic extract 1/10, heat map of binding (%)
[4] = molecular target: T2, recombinant HKU1 spike protein; assay: as above

Binder	binding result [1]	binding result [2]	binding result [3]	binding result [4]
B1	binds	–	–	–
B2	–	no binding (tested: extract 1/10, concentration not given)	no binding (tested: extract 1/10, concentration not given)	no binding (tested: extract 1/10, concentration not given)
B3	–	no binding (tested: extract 1/10, concentration not given)	no binding (tested: extract 1/10, concentration not given)	no binding (tested: extract 1/10, concentration not given)
B4	–	no binding (tested: extract 1/10, concentration not given)	no binding (tested: extract 1/10, concentration not given)	no binding (tested: extract 1/10, concentration not given)

— patent US20250313611A1 (VIB VZW, published 2025)
